Experimental data taken from patent publication US20250381307A1, “RETRO-AAV AND USE IN TREATING NEURODEGENERATIVE DISEASES” (priority 2023, published 2025).

System: striatonigral projection neurons (striatal MSNs)
Assay: Retrograde labeling of striatal MSNs after AAV injection into the SNr (EYFP+ cell counting)
Format: in vivo, mice
Details: AAV8R capsid mutants; numbers of labeled neurons per animal
Source text: Brain profiles of two epigenetic marks for enhancers and promoters, monomethylation of histone H3 lysine 4 (H3K4me1) and acetylation of histone H3 lysine 27 (H3K27ac) were checked and approximately 2 kilobase-long sequences around the transcriptional start site (TSS) that have high levels of H3K4me1 and/or H3K27ac were identified in mouse brain. Homologous sequences at equivalent positions of the human genome were then cloned onto an AAV backbone, and the activity of the homologous sequences in directing reporter expression was tested in mice after injections of AAVs into the SNr (FIG. 3A-C, TABLE 3).
Mice were anesthetized with sodium pentobarbital (Nembutal; 80 mg/kg, i.p.), and then placed into a stereotaxic device (KOPF). Eye cream was applied on both corneas to avoid dehydration. The skull above the targeted areas was thinned with a dental drill and carefully removed. Injections were conducted with a 10 μL syringe connected to a 33-Gauge needle (Neuros; Hamilton), using a microsyringe pump (Legato 130, KD Scientific). A total volume of 200 nL virus was injected into the SNr at a speed of 20 nL/min. The coordinates for the SNr were 3.4 mm posterior, 1.3 mm lateral, 4.8 mm ventral to the bregma.
Images were acquired using a confocal microscope (Carl Zeiss, LSM880) and an Axiolmager.Z1 microscope with apotome (Carl Zeiss). Brain structures were identified microscopically and in digital photos using a mouse brain atlas. To analyze the number of EYFP+ cells in the striatum, slices from rostral to caudal striatum were used. Every sixth section was analyzed, and numbers of EYFP+ cells were multiplied by six to acquire the approximate total number and mean number of cells per animal. Images were processed using ImageJ (NIH, USA), and final quantifications were independently performed manually by two blinded experimenters.

B1: AAV8R4: AAV8R capsid mutant R490Q (SEQ ID NO: 5) (protein)
chain: MAADGYLPDWLEDNLSEGIREWWALKPGAPKPKANQQKQDDGRGLVLPGYKYLGPFNGLDKGEPVNAADAAALEHDKAYDQQLQAGDNPYLRYNHADAEFQERLQEDTSFGGNLGRAVFQAKKRVLEPLGLVEEGAKTAPGKKRPVEPSPQRSPDSSTGIGKKGQQPARKRLNFGQTGDSESVPDPQPLGEPPAAPSGVGPNTMAAGGGAPMADNNEGADGVGSSSGNWHCDSTWLGDRVITTSTRTWALPTYNNHLYKQISNGTSGGATNDNTYFGYSTPWGYFDFNRFHCHFSPRDWQRLINNNWGFRPKRLSFKLFNIQVKEVTQNEGTKTIANNLTSTIQVFTDSEYQLPYVLGSAHQGCLPPFPADVFMIPQYGYLTLNDGSQAVGRSSFYCLEYFPSQMLRTGNNFQFTYTFEDVPFHSSYAHSQSLDRLMNPLIDQYLYYLSRTQTTGGTANTQTLGFSQGGPNTMANQAKNWLPGPCYRQQQVSTTTGQNNNSNFAWTAGTKYHLNGRNSLANPGIAMATHKDDEERFFPSNGILIFGKQNAARDNADYSDVMLTSEEEIKTTNPVATEEYGIVADNLQRGNLADQDYTKTARQAATADVNSQGALPGMVWQNRDVYLQGPIWAKIPHTDGNFHPSPLMGGFGLKHPPPQILIKNTPVPADPPTTFNQSKLNSFITQYSTGQVSVEIEWELQKENSKRWNPEIQYTSNYYKSINVDFAVNTEGVYSEPRPIGTRYLTRNL
In the case of B1, the “Labeling Efficiency in Striatonigral Pathway” value (“Labeling Efficiency” for short) is reported as “+ (<5k)”.

B2: AAV8R5: AAV8R capsid mutant V125I (SEQ ID NO: 6) (protein)
chain: MAADGYLPDWLEDNLSEGIREWWALKPGAPKPKANQQKQDDGRGLVLPGYKYLGPFNGLDKGEPVNAADAAALEHDKAYDQQLQAGDNPYLRYNHADAEFQERLQEDTSFGGNLGRAVFQAKKRILEPLGLVEEGAKTAPGKKRPVEPSPQRSPDSSTGIGKKGQQPARKRLNFGQTGDSESVPDPQPLGEPPAAPSGVGPNTMAAGGGAPMADNNEGADGVGSSSGNWHCDSTWLGDRVITTSTRTWALPTYNNHLYKQISNGTSGGATNDNTYFGYSTPWGYFDFNRFHCHFSPRDWQRLINNNWGFRPKRLSFKLFNIQVKEVTQNEGTKTIANNLTSTIQVFTDSEYQLPYVLGSAHQGCLPPFPADVFMIPQYGYLTLNDGSQAVGRSSFYCLEYFPSQMLRTGNNFQFTYTFEDVPFHSSYAHSQSLDRLMNPLIDQYLYYLSRTQTTGGTANTQTLGFSQGGPNTMANQAKNWLPGPCYRQQRVSTTTGQNNNSNFAWTAGTKYHLNGRNSLANPGIAMATHKDDEERFFPSNGILIFGKQNAARDNADYSDVMLTSEEEIKTTNPVATEEYGIVADNLQRGNLADQDYTKTARQAATADVNSQGALPGMVWQNRDVYLQGPIWAKIPHTDGNFHPSPLMGGFGLKHPPPQILIKNTPVPADPPTTFNQSKLNSFITQYSTGQVSVEIEWELQKENSKRWNPEIQYTSNYYKSINVDFAVNTEGVYSEPRPIGTRYLTRNL
In the case of B2, the “Labeling Efficiency” value is reported as “+ (<5k)”.

B3: AAV8R6: AAV8R capsid mutant F536Y (SEQ ID NO: 7) (protein)
chain: MAADGYLPDWLEDNLSEGIREWWALKPGAPKPKANQQKQDDGRGLVLPGYKYLGPFNGLDKGEPVNAADAAALEHDKAYDQQLQAGDNPYLRYNHADAEFQERLQEDTSFGGNLGRAVFQAKKRVLEPLGLVEEGAKTAPGKKRPVEPSPQRSPDSSTGIGKKGQQPARKRLNFGQTGDSESVPDPQPLGEPPAAPSGVGPNTMAAGGGAPMADNNEGADGVGSSSGNWHCDSTWLGDRVITTSTRTWALPTYNNHLYKQISNGTSGGATNDNTYFGYSTPWGYFDFNRFHCHFSPRDWQRLINNNWGFRPKRLSFKLFNIQVKEVTQNEGTKTIANNLTSTIQVFTDSEYQLPYVLGSAHQGCLPPFPADVFMIPQYGYLTLNDGSQAVGRSSFYCLEYFPSQMLRTGNNFQFTYTFEDVPFHSSYAHSQSLDRLMNPLIDQYLYYLSRTQTTGGTANTQTLGFSQGGPNTMANQAKNWLPGPCYRQQRVSTTTGQNNNSNFAWTAGTKYHLNGRNSLANPGIAMATHKDDEERYFPSNGILIFGKQNAARDNADYSDVMLTSEEEIKTTNPVATEEYGIVADNLQRGNLADQDYTKTARQAATADVNSQGALPGMVWQNRDVYLQGPIWAKIPHTDGNFHPSPLMGGFGLKHPPPQILIKNTPVPADPPTTFNQSKLNSFITQYSTGQVSVEIEWELQKENSKRWNPEIQYTSNYYKSINVDFAVNTEGVYSEPRPIGTRYLTRNL
B3 was tested, and the “Labeling Efficiency” value was “+ (<5k)”.

B4: AAV8R7: AAV8R capsid mutant A606S (SEQ ID NO: 8) (protein)
chain: MAADGYLPDWLEDNLSEGIREWWALKPGAPKPKANQQKQDDGRGLVLPGYKYLGPFNGLDKGEPVNAADAAALEHDKAYDQQLQAGDNPYLRYNHADAEFQERLQEDTSFGGNLGRAVFQAKKRVLEPLGLVEEGAKTAPGKKRPVEPSPQRSPDSSTGIGKKGQQPARKRLNFGQTGDSESVPDPQPLGEPPAAPSGVGPNTMAAGGGAPMADNNEGADGVGSSSGNWHCDSTWLGDRVITTSTRTWALPTYNNHLYKQISNGTSGGATNDNTYFGYSTPWGYFDFNRFHCHFSPRDWQRLINNNWGFRPKRLSFKLFNIQVKEVTQNEGTKTIANNLTSTIQVFTDSEYQLPYVLGSAHQGCLPPFPADVFMIPQYGYLTLNDGSQAVGRSSFYCLEYFPSQMLRTGNNFQFTYTFEDVPFHSSYAHSQSLDRLMNPLIDQYLYYLSRTQTTGGTANTQTLGFSQGGPNTMANQAKNWLPGPCYRQQRVSTTTGQNNNSNFAWTAGTKYHLNGRNSLANPGIAMATHKDDEERFFPSNGILIFGKQNAARDNADYSDVMLTSEEEIKTTNPVATEEYGIVADNLQRGNLADQDYTKTARQAATSDVNSQGALPGMVWQNRDVYLQGPIWAKIPHTDGNFHPSPLMGGFGLKHPPPQILIKNTPVPADPPTTFNQSKLNSFITQYSTGQVSVEIEWELQKENSKRWNPEIQYTSNYYKSINVDFAVNTEGVYSEPRPIGTRYLTRNL
With B4 the “Labeling Efficiency” value was “+ (<5k)”.

B5: AAV8R8: AAV8R capsid mutant T495A (SEQ ID NO: 9) (protein)
chain: MAADGYLPDWLEDNLSEGIREWWALKPGAPKPKANQQKQDDGRGLVLPGYKYLGPFNGLDKGEPVNAADAAALEHDKAYDQQLQAGDNPYLRYNHADAEFQERLQEDTSFGGNLGRAVFQAKKRVLEPLGLVEEGAKTAPGKKRPVEPSPQRSPDSSTGIGKKGQQPARKRLNFGQTGDSESVPDPQPLGEPPAAPSGVGPNTMAAGGGAPMADNNEGADGVGSSSGNWHCDSTWLGDRVITTSTRTWALPTYNNHLYKQISNGTSGGATNDNTYFGYSTPWGYFDFNRFHCHFSPRDWQRLINNNWGFRPKRLSFKLFNIQVKEVTQNEGTKTIANNLTSTIQVFTDSEYQLPYVLGSAHQGCLPPFPADVFMIPQYGYLTLNDGSQAVGRSSFYCLEYFPSQMLRTGNNFQFTYTFEDVPFHSSYAHSQSLDRLMNPLIDQYLYYLSRTQTTGGTANTQTLGFSQGGPNTMANQAKNWLPGPCYRQQRVSTTAGQNNNSNFAWTAGTKYHLNGRNSLANPGIAMATHKDDEERFFPSNGILIFGKQNAARDNADYSDVMLTSEEEIKTTNPVATEEYGIVADNLQRGNLADQDYTKTARQAATADVNSQGALPGMVWQNRDVYLQGPIWAKIPHTDGNFHPSPLMGGFGLKHPPPQILIKNTPVPADPPTTFNQSKLNSFITQYSTGQVSVEIEWELQKENSKRWNPEIQYTSNYYKSINVDFAVNTEGVYSEPRPIGTRYLTRNL
B5 was tested, and the “Labeling Efficiency” value was “+ (<5k)”.
